Here are results for 4 substances from publication PMC6778109.

The experiment deals with Edc3 IDR. Description: methyl TROSY NMR titration.

Turning to “Edc3 YjeF_N domain (from UniProt O94752) K392M”, the other: chemical shift perturbation Δδ of the introduced methyl group (+ 6x Edc3 IDR) is 0.087 ppm.

As to “Edc3 YjeF_N domain (from UniProt O94752) Q447I”, the other: chemical shift perturbation Δδ of the introduced methyl group (+ 6x Edc3 IDR) came out at 0.078 ppm.

With “Edc3 YjeF_N domain (from UniProt O94752) V253I”, the other: chemical shift perturbation Δδ of the introduced methyl group (+ 4x Edc3 IDR) turned out to be 0.391 ppm.

For the substance “Edc3 YjeF_N domain (from UniProt O94752) W393M”, where the note is “+ 4x Edc3 IDR”, the other: chemical shift perturbation Δδ of the introduced methyl group turned out to be 0.104 ppm.
